Here are results for 15 molecules from patent publication US20200377590A1 (Hoffmann-La Roche, published 2020).

Sequences and labels used below:
B1: CD81K04 HC CD81K04 / LC GG-06-hVK_1_39 (antibody, V domains shown)
VH: QVQLQQSGPELVKPGASVKISCKASGYTFSSSWMNWVKQRPGKGLEWIGRIYSGDGDAIYNGKFKGKATLTADKSSSTAYMQLSSLTSEDSAVYFCAREGKTGDLLLRSWGQGSALTVSS
VL: DIQMTQSPSSLSASVGDRVTITCRASKSVSTSIYSYLNWYQQKPGKAPKLLIYYASYLQSGVPSRFSGSGSGTDFTLTISSLQPEDFATYYCQHSREFPYTFGQGTKLEIK
notes: human constant region
B2: CD81K04 HC CD81K04 / LC GG-02-hVK_4_1 (antibody, V domains shown)
VH: QVQLQQSGPELVKPGASVKISCKASGYTFSSSWMNWVKQRPGKGLEWIGRIYSGDGDAIYNGKFKGKATLTADKSSSTAYMQLSSLTSEDSAVYFCAREGKTGDLLLRSWGQGSALTVSS
VL: DIVMTQSPDSLAVSLGERATINCKSSKSVSTSIYSYMHWYQQKPGQPPKLLIYYASYRESGVPDRFSGSGSGTDFTLTISSLQAEDVAVYYCQHSREFPFTFGQGTKLEIK
notes: human constant region
B3: CD81K04 HC CD81K04 / LC JA_GG-10-hVK_4_1 (antibody, V domains shown)
VH: QVQLQQSGPELVKPGASVKISCKASGYTFSSSWMNWVKQRPGKGLEWIGRIYSGDGDAIYNGKFKGKATLTADKSSSTAYMQLSSLTSEDSAVYFCAREGKTGDLLLRSWGQGSALTVSS
VL: DIVMTQSPDSLAVSLGERATINCRASKSVSTSIYSYMHWYQQKPGQPPKLLIKYASYLESGVPDRFSGSGSGTDFTLTISSLQAEDVAVYYCEHSREFPFTFGQGTKLEIK
notes: human constant region
B4: CD81K04 HC GG-03-hVH_1_69 / LC CD81K04 (antibody, V domains shown)
VH: QVQLVQSGAEVKKPGSSVKVSCKASGYTFSSSWMNWVRQAPGQGLEWMGRIYSGDGDAIYAQKFQGRVTITADESTSTAYMELSSLRSEDTAVYYCAREGKTGDLLLRSWGQGTLVTVSS
VL: DIVLTQSPASLSVSLGQRATISCRASKSVSTSIYSYMHWYQQKPGQPPKLLIKYASYLESGVPARFSGSGSGTDFTLNIHPVEEEDAATYYCEHSREFPFTFGTGTKLEIK
notes: human constant region
B5: CD81K04 HC GG-01-hVH_5_51 / LC CD81K04 (antibody, V domains shown)
VH: EVQLVQSGAEVKKPGESLKISCKGSGYSFSSSWMNWVRQMPGKGLEWMGRIYSGDGDAIYSPSFQGQVTISADKSISTAYLQLSSLKASDTAMYYCAREGKTGDLLLRSWGQGTLVTVSS
VL: DIVLTQSPASLSVSLGQRATISCRASKSVSTSIYSYMHWYQQKPGQPPKLLIKYASYLESGVPARFSGSGSGTDFTLNIHPVEEEDAATYYCEHSREFPFTFGTGTKLEIK
notes: human constant region
B6: CD81K04 HC CD81K04 / LC CD81K04 (antibody, V domains shown)
VH: QVQLQQSGPELVKPGASVKISCKASGYTFSSSWMNWVKQRPGKGLEWIGRIYSGDGDAIYNGKFKGKATLTADKSSSTAYMQLSSLTSEDSAVYFCAREGKTGDLLLRSWGQGSALTVSS
VL: DIVLTQSPASLSVSLGQRATISCRASKSVSTSIYSYMHWYQQKPGQPPKLLIKYASYLESGVPARFSGSGSGTDFTLNIHPVEEEDAATYYCEHSREFPFTFGTGTKLEIK
notes: human constant region; also called CD81K04 (chimeric form)
B7: CD81K04 HC JA_GG-14-hVH_1_69-GA / LC CD81K04 (antibody, V domains shown)
VH: QVQLVQSGAEVKKPGSSVKVSCKASGYTFSSSWMNWVRQAPGQGLEWMGRIYSGDGDAIYNGKFKGKATITADESTSTAYMELSSLRSEDTAVYYCAREGKTGDLLLRSWGQGTLVTVSS
VL: DIVLTQSPASLSVSLGQRATISCRASKSVSTSIYSYMHWYQQKPGQPPKLLIKYASYLESGVPARFSGSGSGTDFTLNIHPVEEEDAATYYCEHSREFPFTFGTGTKLEIK
notes: human constant region
B8: CD81K04 HC JA_GG-13-hVH_1_69 / LC CD81K04 (antibody, V domains shown)
VH: QVQLVQSGAEVKKPGSSVKVSCKASGGTFSSSWMNWVRQAPGQGLEWMGRIYSGDGDAIYAQKFQGRVTITADESTSTAYMELSSLRSEDTAVYYCAREGKTGDLLLRSWGQGTLVTVSS
VL: DIVLTQSPASLSVSLGQRATISCRASKSVSTSIYSYMHWYQQKPGQPPKLLIKYASYLESGVPARFSGSGSGTDFTLNIHPVEEEDAATYYCEHSREFPFTFGTGTKLEIK
notes: human constant region
B9: CD81K04 HC JA_GG-14-hVH_1_69 / LC CD81K04 (antibody, V domains shown)
VH: QVQLVQSGAEVKKPGSSVKVSCKASGYTFSSSWMNWVRQAPGQGLEWMGRIYSGDGDAIYNGKFKGKATITADESTSTAYMELSSLRSEDTAVYYCAREGKTGDLLLRSWGQGTLVTVSS
VL: DIVLTQSPASLSVSLGQRATISCRASKSVSTSIYSYMHWYQQKPGQPPKLLIKYASYLESGVPARFSGSGSGTDFTLNIHPVEEEDAATYYCEHSREFPFTFGTGTKLEIK
notes: human constant region
B10: CD81K04 HC GG-06-hVH_1_69 / LC CD81K04 (antibody, V domains shown)
VH: QVQLVQSGAEVKKPGSSVKVSCKASGYTFSSSWMCWVRQAPGQGLEWMGCIYSGDGDAIYNQKFQGRVTITADESTSTAYMELSSLRSEDTAVYYCAREGKTGDLLLRSWGQGTLVTVSS
VL: DIVLTQSPASLSVSLGQRATISCRASKSVSTSIYSYMHWYQQKPGQPPKLLIKYASYLESGVPARFSGSGSGTDFTLNIHPVEEEDAATYYCEHSREFPFTFGTGTKLEIK
notes: human constant region
B11: CD81K04 HC JA_GG-14-hVH_1_3 / LC CD81K04 (antibody, V domains shown)
VH: QVQLVQSGAEVKKPGASVKVSCKASGYTFSSSWMNWVRQAPGQGLEWMGRIYSGDGDAIYNGKFKGRATITADTSASTAYMELSSLRSEDTAVYYCAREGKTGDLLLRSWGQGTLVTVSS
VL: DIVLTQSPASLSVSLGQRATISCRASKSVSTSIYSYMHWYQQKPGQPPKLLIKYASYLESGVPARFSGSGSGTDFTLNIHPVEEEDAATYYCEHSREFPFTFGTGTKLEIK
notes: human constant region
B12: CD81K04 HC JA_GG-16-hVH_1_3 / LC CD81K04 (antibody, V domains shown)
VH: QVQLVQSGAEVKKPGASVKVSCKASGYTFSSSWMNWVRQAPGQGLEWMGRIYSGDGDAIYNGKFKGRVTITADTSASTAYMELSSLRSEDTAVYYCAREGKTGDLLLRSWGQGTLVTVSS
VL: DIVLTQSPASLSVSLGQRATISCRASKSVSTSIYSYMHWYQQKPGQPPKLLIKYASYLESGVPARFSGSGSGTDFTLNIHPVEEEDAATYYCEHSREFPFTFGTGTKLEIK
notes: human constant region
B13: CD81K04 HC K04_JA-13-hVH_1_3 / LC CD81K04 (antibody, V domains shown)
VH: QVQLVQSGAEVKKPGASVKVSCKASGYTFSSSWMNWVRQAPGQRLEWMGRIYSGDGDAIYNGKFKGRVTITRDTSASTAYMELSSLRSEDTAVYYCAREGKTGDLLLRSWGQGTLVTVSS
VL: DIVLTQSPASLSVSLGQRATISCRASKSVSTSIYSYMHWYQQKPGQPPKLLIKYASYLESGVPARFSGSGSGTDFTLNIHPVEEEDAATYYCEHSREFPFTFGTGTKLEIK
notes: human constant region
B14: CD81K04 HC GG-04-hVH_1_69 / LC CD81K04 (antibody, V domains shown)
VH: QVQLVQSGAEVKKPGSSVKVSCKASGYTFSSSWMNWVRQAPGQGLEWMGRIYSGDGDAIYNQKFQGRATITADESTSTAYMELSSLRSEDTAVYYCAREGKTGDLLLRSWGQGTLVTVSS
VL: DIVLTQSPASLSVSLGQRATISCRASKSVSTSIYSYMHWYQQKPGQPPKLLIKYASYLESGVPARFSGSGSGTDFTLNIHPVEEEDAATYYCEHSREFPFTFGTGTKLEIK
notes: human constant region
B15: CD81K04 HC JA_GG-15-hVH_1_3 / LC CD81K04 (antibody, V domains shown)
VH: QVQLVQSGAEVKKPGASVKVSCKASGYTFSSSWMNWVRQAPGQRLEWMGRIYSGDGDAIYNGKFKGRVTITADTSASTAYMELSSLRSEDTAVYYCAREGKTGDLLLRSWGQGTLVTVSS
VL: DIVLTQSPASLSVSLGQRATISCRASKSVSTSIYSYMHWYQQKPGQPPKLLIKYASYLESGVPARFSGSGSGTDFTLNIHPVEEEDAATYYCEHSREFPFTFGTGTKLEIK
notes: human constant region
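Note: antibody binding to HuH7 cells expressing CD81 versus a CD81-negative HuH7 control line, bound antibody detected by secondary reagent, absorbance at 450 nm with 620 nm reference.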

The experiment concerns the target T1, CD81 (UniProt P60033 1-236, limits assumed).
T1 construct: whole, on cells; also called CD81 receptor
T1 sequence (looked up): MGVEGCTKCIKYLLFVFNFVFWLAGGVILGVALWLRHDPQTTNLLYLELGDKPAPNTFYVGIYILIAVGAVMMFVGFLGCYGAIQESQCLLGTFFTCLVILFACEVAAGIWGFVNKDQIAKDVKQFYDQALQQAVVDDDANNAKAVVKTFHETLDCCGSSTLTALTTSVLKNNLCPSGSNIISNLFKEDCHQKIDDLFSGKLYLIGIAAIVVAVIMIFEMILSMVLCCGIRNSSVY
The experiment in a line: cell ELISA. (In general: In an ELISA, binding on a coated surface is turned into a signal by an enzyme label.)
In turn, B1 had an ELISA data of 0.185.

B2 returned an ELISA data of 0.785.

With B3, the ELISA data was found to be 1.06.

As for B4, the ELISA data stood at 0.843.

As for B5, the ELISA data amounted to 0.082.

B6 displayed an ELISA data of 1.14.

As to B7, the ELISA data was found to be 0.877.

With B8, the ELISA data is 0.564.

In turn, B9 came in with an ELISA data of 0.996.

As for B10, the ELISA data worked out at 0.342.

In the case of B11, the ELISA data is 0.998.

The molecule B12 yielded an ELISA data of 0.98.

B13 gave an ELISA data of 0.974.

Regarding B14, the ELISA data turned out to be 0.859.

In turn, B15 registered an ELISA data of 1.
